This passage reports ELISA signal (arbitrary units) and IC50 results from patent US20080069777A1.

The target of experiment [1] is whole LFA-1 in which the α subunit contains an I-domain in the low affinity locked closed state, on cells (LA cells) (human) (UniProt P05107). The experiment in a line: phage ELISA, LA form of LFA-1, without Mg2+.
The target is the same in experiment [2]. The experiment in a line: phage ELISA, LA form of LFA-1, with Mg2+. (In an ELISA, binding on a coated surface is turned into a signal by an enzyme label.)
The target in experiment [3] is human wild-type LFA-1 on cells (human) (UniProt P20701). The experiment in a line: inhibition of ICAM binding to human PBMCs; average of four experiments.
Chain of human wild-type LFA-1 on cells (human) (P20701 other isoform, or with tags, fused parts or gaps limits assumed, chain 1 of 2): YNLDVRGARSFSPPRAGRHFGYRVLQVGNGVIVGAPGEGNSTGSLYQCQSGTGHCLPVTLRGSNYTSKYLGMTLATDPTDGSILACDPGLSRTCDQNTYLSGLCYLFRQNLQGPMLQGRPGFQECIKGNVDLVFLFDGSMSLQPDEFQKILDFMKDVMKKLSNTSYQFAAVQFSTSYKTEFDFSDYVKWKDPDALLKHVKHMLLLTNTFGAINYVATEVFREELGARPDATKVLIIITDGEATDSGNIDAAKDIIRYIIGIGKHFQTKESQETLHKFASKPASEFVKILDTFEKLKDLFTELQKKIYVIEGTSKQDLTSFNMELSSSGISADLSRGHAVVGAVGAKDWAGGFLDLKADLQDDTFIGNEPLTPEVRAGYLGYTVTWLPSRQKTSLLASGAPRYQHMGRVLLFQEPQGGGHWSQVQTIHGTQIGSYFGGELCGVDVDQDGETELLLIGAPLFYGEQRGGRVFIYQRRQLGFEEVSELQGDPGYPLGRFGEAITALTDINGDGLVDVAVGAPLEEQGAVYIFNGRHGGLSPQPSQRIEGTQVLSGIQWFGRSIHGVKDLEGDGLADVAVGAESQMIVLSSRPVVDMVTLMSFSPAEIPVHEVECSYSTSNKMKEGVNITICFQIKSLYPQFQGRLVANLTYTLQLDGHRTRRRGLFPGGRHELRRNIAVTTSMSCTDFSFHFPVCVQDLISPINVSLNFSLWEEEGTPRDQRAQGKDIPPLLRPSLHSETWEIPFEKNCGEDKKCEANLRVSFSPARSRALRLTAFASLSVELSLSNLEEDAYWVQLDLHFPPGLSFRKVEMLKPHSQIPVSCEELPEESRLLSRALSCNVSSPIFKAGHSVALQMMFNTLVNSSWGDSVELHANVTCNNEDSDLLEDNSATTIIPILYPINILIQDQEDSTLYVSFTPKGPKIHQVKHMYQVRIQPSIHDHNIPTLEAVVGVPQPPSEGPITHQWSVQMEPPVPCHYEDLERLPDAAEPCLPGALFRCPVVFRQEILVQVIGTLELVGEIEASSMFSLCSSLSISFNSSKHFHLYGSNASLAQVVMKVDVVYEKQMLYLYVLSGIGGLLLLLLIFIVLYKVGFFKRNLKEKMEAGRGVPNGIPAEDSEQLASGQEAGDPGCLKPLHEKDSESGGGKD
Chain of human wild-type LFA-1 on cells (human) (chain, as listed by the source limits assumed, chain 2 of 2): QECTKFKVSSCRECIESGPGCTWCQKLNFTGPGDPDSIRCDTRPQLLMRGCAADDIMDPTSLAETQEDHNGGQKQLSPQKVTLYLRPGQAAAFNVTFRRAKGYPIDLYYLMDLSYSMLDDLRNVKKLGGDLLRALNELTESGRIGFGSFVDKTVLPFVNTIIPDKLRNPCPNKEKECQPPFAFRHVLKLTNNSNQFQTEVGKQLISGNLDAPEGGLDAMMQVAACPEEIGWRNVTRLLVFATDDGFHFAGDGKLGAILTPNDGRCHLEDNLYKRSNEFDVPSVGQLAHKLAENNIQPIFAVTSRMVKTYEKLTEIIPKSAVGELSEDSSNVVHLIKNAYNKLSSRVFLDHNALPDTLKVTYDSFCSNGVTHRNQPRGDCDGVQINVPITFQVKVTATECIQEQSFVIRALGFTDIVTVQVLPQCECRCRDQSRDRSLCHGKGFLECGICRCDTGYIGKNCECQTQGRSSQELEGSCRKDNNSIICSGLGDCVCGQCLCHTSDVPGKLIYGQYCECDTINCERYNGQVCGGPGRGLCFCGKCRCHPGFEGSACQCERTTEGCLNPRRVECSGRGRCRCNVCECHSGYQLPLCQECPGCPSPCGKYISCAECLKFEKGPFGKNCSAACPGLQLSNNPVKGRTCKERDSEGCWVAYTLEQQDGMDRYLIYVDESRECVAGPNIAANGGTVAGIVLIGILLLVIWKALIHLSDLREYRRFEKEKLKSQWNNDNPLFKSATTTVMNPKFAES
Experiment [4] addresses whole LFA-1 in which the α subunit contains an I-domain in the high affinity locked open state, on cells (HA cells) (human) (UniProt P05107). The experiment is described as follows: inhibition of ICAM binding to HA cells, Guava analysis; second experiment.
For experiment [5] the target is unchanged. The experiment in a line: inhibition of ICAM binding to HA cells, Guava analysis; third experiment.
For experiment [6] the target is unchanged. The experiment is described as follows: inhibition of ICAM binding to HA cells, Guava analysis; fourth experiment.
For experiment [7] the target is unchanged. The experiment in a line: inhibition of ICAM binding to HA cells, Guava analysis; first experiment.

“Control #2 (another protein that binds to a different target)”: the ELISA signal (arbitrary units) amounted to 0.07 in experiment [1] and 0.14 in experiment [2].

As for MHM24 IgG (antibody), the IC50 in experiment [3] was 0.33 nM; in experiment [4], 1.8 nM; in experiment [5], 0.59 nM; in experiment [6] it was 2.4 nM; in experiment [7], 0.24 nM.

For the substance “Control #1 (a phage that binds to a different target)”, the values for the ELISA signal (arbitrary units) in experiment [1] and in experiment [2] were 0.07 and 0.13, respectively.

In general, IC50 refers to the concentration that inhibits the measured activity by half. A higher IC50 goes with weaker potency.
